# Results from article PMC11201429.
# Target: thrombin (human alpha-thrombin not specified) (human, UniProt P00734;P00734 328-363;364-622)
# Assay: QCM-D; aptamer immobilised on streptavidin/biotin-PE/POPC bilayer; thrombin 1-25 ug/mL, shift 3 to 81 Hz; LOD 29 nM (not a Kd); PBS with CaCl2 and MgCl2 (concentrations not given), 0.1% BSA, 37 C; aptamer 0.5 uM loaded, heated to 95 C for 5 min and cooled to RT
binder,measurement,value
"CGCCTAGGTTGGGTAGGGTGGTGGCG (structured_DNA, 5'-biotin) [NU172 thrombin aptamer]",binding result,binds
